Target: TGFβ in media conditioned by B16F10 melanoma cells (murine (produced by murine B16F10 cells))
Experiment: cell-based or functional assay

| level of active TGFβ as percent of total TGFβ (MLEC PAI-1 promoter luciferase assay) (% of total TGFβ) | Substance |
| --- | --- |
| 4.8 | TSR2 recombinant protein (second type 1 repeat of human TSP-1 without the DKRFK sequence, amino acids 416-473) |
| 30 | TSR2+RFK recombinant protein (second type 1 repeat of human TSP-1 with the RFK sequence, amino acids 411-473) |

Reference: patent publication US20040110131A1
